Results reported in US20220089721A1 (Bayer, published 2022).

T1: human CEACAM6 (carcinoembryonic antigen-related cell adhesion molecule 6) (human, UniProt P40199 35-320)
T1 sequence (looked up): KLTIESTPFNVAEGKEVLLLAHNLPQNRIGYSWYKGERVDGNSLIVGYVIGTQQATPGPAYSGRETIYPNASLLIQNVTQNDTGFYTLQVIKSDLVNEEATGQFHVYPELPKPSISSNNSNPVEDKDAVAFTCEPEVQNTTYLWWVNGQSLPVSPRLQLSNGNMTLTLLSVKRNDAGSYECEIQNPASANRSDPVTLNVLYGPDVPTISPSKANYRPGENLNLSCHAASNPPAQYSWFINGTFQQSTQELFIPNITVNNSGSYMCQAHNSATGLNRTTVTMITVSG

B1: anti-CEACAM6 antibody TPP-3310 (antibody, human IgG2, kappa, V domains shown)
VH: QVTLRESGPALVKPTQTLTLTCTFSGFSLSTYGIGVGWIRQPPGKALEWLAHIWWNDNKYYSTSLKTRLTISKDTSKNQVVLTMTNMDPVDTATYYCARISLPYFDYWGQGTTLTVSS
VL: DIQLTQSPSFLSASVGDRVTITCKASQNVGTAVAWYQQKPGKAPKLLIYSASNRYTGVPSRFSGSGSGTEFTLTISSLQPEDFATYYCQQYSSYPLTFGGGTKVEIKR

Assays:
[1] = molecular target: T cell immunoglobulin domain and mucin domain 3 (TIM-3) (human) (UniProt Q8TDQ0); test: cell-based or functional assay
[2] = molecular target: T1, human CEACAM6 (carcinoembryonic …); test: cell-based or functional assay

Molecule | IFN-γ in pg/ml, absolute mean, TC + HCC + 0.5 µg/ml FLU pep + 50 µg/ml antibody (isotype Mab006: 735.0) [1] | IFNg [pg/ml], isotype corrected, FluM1 T cells + HCC2935, single agent 50 µg/ml, experiment 1 [1] | IFNg [pg/ml], isotype corrected, FluM1 T cells + HCC2935, single agent 50 µg/ml, experiment 2 [1] | IFNg [pg/ml], isotype corrected, FluM1 T cells + HCC2935, single agent 50 µg/ml, experiment 3 [1] | IFNg [pg/ml], isotype corrected, FluM1 T cells + HCC2935, single agent 50 µg/ml, experiment 4 [1] | IFNg [pg/ml], isotype corrected, FluM1 T cells + HCC2935, single agent 50 µg/ml, experiment 5 [1] | IFNg [pg/ml], isotype corrected, FluM1 T cells + HCC2935, single agent 50 µg/ml, experiment 6 [1] | IFNg [pg/ml], isotype corrected, FluM1 T cells + HCC2935, single agent 50 µg/ml, experiment 7 [1] | IFNg [pg/ml], isotype corrected, FluM1 T cells + HCC2935, single agent 50 µg/ml, mean of n = 7 [1] | Mean IFNg (pg/ml), isotype corrected, survivin-peptide specific T cells + HCC2935 lung cells, single agent 50 µg/ml, n = 1 [1] | Mean IFNg (pg/ml), isotype corrected, survivin-peptide specific T cells + KS breast cancer cells, single agent 50 µg/ml, n = 1 [1] | half-maximal effective concentration (EC50) for activation of T cells in co-culture [2]
MAB2365 (rIgG2, R&D Jackson Immunoresearch), anti-TIM3 antibody | 925 pg/mL | 65 pg/mL | 67.7 pg/mL | 37 pg/mL | 247 pg/mL | 287 pg/mL | 288 pg/mL | 278 pg/mL | 182 pg/mL | 63.6 pg/mL | 18.3 pg/mL | –
B1 | – | – | – | – | – | – | – | – | – | – | – | ~1 µg/mL
